Reference: article PMC10916992, “APOE Christchurch‐mimetic therapeutic antibody reduces APOE‐mediated toxicity and tau phosphorylation” (Alzheimer's & Dementia, 2023)

Columns and labels:
[1] = biological target: Recombinant His-tagged full-length human ApoE4 (human, UniProt P02649 19-317, Cys112 → Arg112); assay: SPR
[2] = biological target: T1, Recombinant His-tagged full-length human ApoE4 (Homo sapiens, ApoE4 (C112R mature), UniProt P02649, Cys112 → Arg112); assay: SPR; Biacore 3000, PBS; the Fab injected at various concentrations (methods; the legend says ApoE4 over immobilised Fab); contact 120 s, dissociation 240 s, 30 μL/min; KD from ka and kd; details: both partners purified
T1 construct: Apolipoprotein E, human, isoform E4; their rows are written on this molecule; source: E. coli-derived, His-tagged, fee-for-service by Innovagen
Target sequence in this assay (P02649 other isoform, or with tags, fused parts or gaps Cys112 → Arg112 | Cys112 → Arg112): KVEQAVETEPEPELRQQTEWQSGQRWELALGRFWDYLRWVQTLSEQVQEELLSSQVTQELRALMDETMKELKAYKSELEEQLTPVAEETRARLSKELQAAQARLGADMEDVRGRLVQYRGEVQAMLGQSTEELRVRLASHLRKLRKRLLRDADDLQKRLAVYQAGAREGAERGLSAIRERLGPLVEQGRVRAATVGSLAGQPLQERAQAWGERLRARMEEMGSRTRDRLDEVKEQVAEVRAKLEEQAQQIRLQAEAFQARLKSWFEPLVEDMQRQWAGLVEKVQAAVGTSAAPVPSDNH

[3] = biological target: T2, Recombinant His-tagged full-length human ApoE3 (Homo sapiens, ApoE3, UniProt P02649); assay: ELISA; ApoE peptide or full-length protein coated on the plate; serial dilutions of hybridoma cell supernatants; TBS with 2 mM CaCl2, 3% BSA block; details: one partner purified
T2 construct: Apolipoprotein E, human, isoform E3 (C112, R158); ELISA used the Innovagen protein; their rows are written on this molecule; A recombinant 'full-length' ApoE from E. coli is probably the mature protein without signal peptide (surmise); also called ApoE3 FL; WT ApoE; source: E. coli-derived, His-tagged, fee-for-service by Innovagen
Target sequence in this assay (P02649 19-317): as the sequence (P02649 other isoform, or with tags, fused parts or gaps Cys112 → Arg112 | Cys112 → Arg112) above, with R112C counted along it

[4] = biological target: T3, Recombinant His-tagged full-length human ApoE2 (Homo sapiens, ApoE2 (R158C mature), UniProt P02649, Arg158 → Cys158); assay: BLI; OCTET RED 96, 25°C; ApoE variants immobilised on anti-penta-His (HS1K) sensors; 7C11.mAb in solution, titrated; details: both partners purified
T3 construct: Apolipoprotein E, human, isoform E2; its rows are written on this molecule; source: E. coli-derived, His-tagged, fee-for-service by Innovagen
Target sequence in this assay (P02649 other isoform, or with tags, fused parts or gaps Arg158 → Cys158 | Arg158 → Cys158): as the sequence (P02649 other isoform, or with tags, fused parts or gaps Cys112 → Arg112 | Cys112 → Arg112) above, with R112C, R158C counted along it

[5] = biological target: T1, Recombinant His-tagged full-length …; assay: as above; details: both partners purified
Target sequence in this assay (P02649 other isoform, or with tags, fused parts or gaps Cys112 → Arg112 | Cys112 → Arg112): as the sequence (P02649 other isoform, or with tags, fused parts or gaps Cys112 → Arg112 | Cys112 → Arg112) above

[6] = biological target: T2, Recombinant His-tagged full-length …; assay: as above; details: both partners purified
Target sequence in this assay (P02649 19-317): as the sequence (P02649 other isoform, or with tags, fused parts or gaps Cys112 → Arg112 | Cys112 → Arg112) above, with R112C counted along it

[7] = biological target: T3, Recombinant His-tagged full-length …; assay: BLI; OCTET RED 96, 25°C; msIgG1 7C11.mAb loaded on anti-mouse Fc (AMC) sensors at 20 μg/mL; ApoE variant in solution (200 nM), PBS + 0.1% BSA; details: both partners purified
[8] = biological target: T1, Recombinant His-tagged full-length …; assay: as above; details: both partners purified
[9] = biological target: T2, Recombinant His-tagged full-length …; assay: as above; details: both partners purified
[10] = biological target: T2, Recombinant His-tagged full-length …; assay: ELISA; ApoE variants or peptides coated (0.0025 μg/μL in TBS with 2 mM CaCl2, 16 h 4°C); serial dilutions of purified monoclonal antibodies (0.01 to 6.7 nM in the isoform panel), 2 h RT or 16 h 4°C; HRP secondary; details: both partners purified
Target sequence in this assay (P02649 19-317): as the sequence (P02649 other isoform, or with tags, fused parts or gaps Cys112 → Arg112 | Cys112 → Arg112) above, with R112C counted along it

[11] = biological target: T4, ApoE3 in post mortem human brain tissue (APOEε3/ε3 PSEN1 E280A carrier) (Homo sapiens, ApoE3, UniProt P02649); assay: immunostaining of cells or tissue; formalin-fixed paraffin-embedded middle temporal gyrus sections of PSEN1 E280A carriers of different APOE genotypes; 1H4 0.012 μg/μL, 7C11 0.041 μg/μL, 19G 0.072 μg/μL overnight 4°C; HRP detection; not quantified; details: one partner purified
T4 construct: Apolipoprotein E, human, isoform E3; source: endogenous, post mortem human middle temporal gyrus, formalin-fixed paraffin-embedded sections

[12] = biological target: T1, Recombinant His-tagged full-length …; assay: BLI; OCTET RED 96, 25°C; 7C11ch.IgG1 loaded on anti-human IgG Fc (AHC) sensors at 20 μg/mL; ApoE4 in solution (200 nM), PBS + 0.1% BSA; details: both partners purified

T4 sequence (P02649 19-317, stated change not applied): as the sequence (P02649 other isoform, or with tags, fused parts or gaps Cys112 → Arg112 | Cys112 → Arg112) above, with R112C counted along it
Recombinant His-tagged full-length human ApoE4 (human, UniProt P02649 19-317, Cys112 → Arg112), sequence (P02649 other isoform, or with tags, fused parts or gaps Cys112 → Arg112): as the sequence (P02649 other isoform, or with tags, fused parts or gaps Cys112 → Arg112 | Cys112 → Arg112) above

B1: 7C11-Fab (recombinant Fab fragment of the 7C11.chIgG1 antibody) (Fab, V domains shown)
VH: EVKLVESGGGLVQPGGSLKLSCAASGFTFSRYTMSWVRQTPEKRLEWVAKIRNVGGITYYPDTVKGRFTISRDNAKNTLYLQMSSLKSEDTAMYYCARHYYGSEDYFDYWGQGTTLTVSS
VL: DNVLTQSPASLAVSLGQRATISCKASQSVDYDGDSYMNWYQQKPGQPPKVFIYAASNLESGIPARFSGSGSGTNFTLNIHPVEEEDAATYYCQQSNEDPWTFGGGTKLEIK
notes: VH CDR-1 of 7C11; VH CDR-2 of 7C11; VH CDR-3 of 7C11; VL CDR-1 of 7C11; VL CDR-2 of 7C11; VL CDR-3 of 7C11; also called Fab-7C11; 7C11.IgGFab; source: recombinant, purified, fee-for-service by Creative BioStructure
[1]
  Kd: 25.1 nM
[2]
  Kd: ~10 nM

B2: 25F.mAb (mouse monoclonal anti-ApoE3Ch antibody, clone 25F1-2) (antibody, V domains shown)
VH: EVQLQQSGAELVRPGALVKWSCKASGFNIKDYHIHWVKQRPEQGLDWIGWIDPEIDKTLYDPKFQGKARITADTSSNTAYLQLSSLTSEDTAVYYCARGTARASFDYWGQGTTLTVSS
VL: DIVLTQSPASLAVSLGQRATISCKASQSVDYDGDTYMNWYQQKPGQPPKLLIYTASNLESGIPARFSGSGSGTDFTLNIHPVEEVDAATYYCQQSNEDPWTFGGGTKLEIK
notes: VH CDR-1; VH CDR-2; VH CDR-3; VL CDR-1; VL CDR-2; VL CDR-3; Raised against the ApoECh peptide; also called 25F.Ab; source: hybridoma supernatant (25F.Ab) and purified monoclonal antibody (25F.mAb), fee-for-service by Innovagen
[3]
  binding result: binds

B3: 7C11.mAb (mouse monoclonal anti-ApoE antibody, msIgG1) (antibody, V domains shown)
VH: EVKLVESGGGLVQPGGSLKLSCAASGFTFSRYTMSWVRQTPEKRLEWVAKIRNVGGITYYPDTVKGRFTISRDNAKNTLYLQMSSLKSEDTAMYYCARHYYGSEDYFDYWGQGTTLTVSS
VL: DNVLTQSPASLAVSLGQRATISCKASQSVDYDGDSYMNWYQQKPGQPPKVFIYAASNLESGIPARFSGSGSGTNFTLNIHPVEEEDAATYYCQQSNEDPWTFGGGTKLEIK
notes: VH CDR-1; VH CDR-2; VH CDR-3; VL CDR-1; VL CDR-2; VL CDR-3; Mouse IgG1; also called 7C11.Ab; ms.7C11-Ab; source: hybridoma supernatant (7C11.Ab) and purified monoclonal antibody (7C11.mAb), fee-for-service by Innovagen
[4]
  Kd: 7.41 nM
[5]
  Kd: 6.07 nM
[6]
  Kd: 16.8 nM
[7]
  Kd: 28.1 nM
[8]
  Kd: < 1 pM
[9]
  Kd: 5.14 nM

B4: 1H4.mAb (mouse monoclonal anti-ApoE antibody) (antibody, V domains shown)
VH: EVKLVESGGGVVQPGGSLKLSCAASGFTFSSYTMSWVRQTPEKRLEWVAKIRNGGGITYYLDTLKGRFTISRDNAKNTLYLQMSSLKSEDTAIYFCARHYYGSEDYFDYWGQGTTLTVSS
VL: DNVLTQSPASLAVSLGQRATISCKASQSVDYDGDSYMNWYQQKPGQPPKVFIYAASNLESGIPARFSGSGSGTDFTLNIHPVEEEDAATYYCQQSNEDPWTFGGGTKLEIK
notes: VH CDR-1; VH CDR-2; VH CDR-3; VL CDR-1; VL CDR-2; VL CDR-3; Raised against the ApoE peptide; also called 1H4.Ab; source: hybridoma supernatant (1H4.Ab) and purified monoclonal antibody (1H4.mAb), fee-for-service by Innovagen
[10]
  binding result: binds
[11]
  binding result: binds

B5: 7C11.chIgG1 (chimeric mouse-human IgG1 7C11 antibody) (antibody, V domains shown)
VH: EVKLVESGGGLVQPGGSLKLSCAASGFTFSRYTMSWVRQTPEKRLEWVAKIRNVGGITYYPDTVKGRFTISRDNAKNTLYLQMSSLKSEDTAMYYCARHYYGSEDYFDYWGQGTTLTVSS
VL: DNVLTQSPASLAVSLGQRATISCKASQSVDYDGDSYMNWYQQKPGQPPKVFIYAASNLESGIPARFSGSGSGTNFTLNIHPVEEEDAATYYCQQSNEDPWTFGGGTKLEIK
notes: VH CDR-1 of 7C11; VH CDR-2 of 7C11; VH CDR-3 of 7C11; VL CDR-1 of 7C11; VL CDR-2 of 7C11; VL CDR-3 of 7C11; Human IgG1 constant regions; also called chimeric 7C11 antibody; 7C11 human chimeric antibody; source: human chimeric antibody produced as fee-for-service by Innovagen
[12]
  Kd: < 1 pM
